{
  "source": "patent US20020025569A1",
  "about": "(GPC BIOTECH, published 2002)",
  "molecules": {"B1": {"name": "mouse cdc4 (clone from a mouse cDNA-VP16 fusion library; 486 base pair fragment) (other, not shown: large carriers)", "chain": "TFTHEAPNQRRRLILCSAATDGSLAFWDLTTAMDKGSTTLELPAHPGLPYQMGTPSMTVQAHSCGVNSLHTLPTPEGHHLVASGSEDGSLHVFTLAVKMPEPEEADGEAELVPQLCVLEEYSVPCAHAAHVTGVKILSPKLMVSASIDQRLTFWRLGQGEPP", "notes": "VP16 is placed first from knowledge of such libraries; also called mu-cdc4; mcdc4"}},
  "key": {"[1]": {"tested_on": "T1, GST-fusion protein containing amino acids 696-902 of human cdc4", "T1 sequence": "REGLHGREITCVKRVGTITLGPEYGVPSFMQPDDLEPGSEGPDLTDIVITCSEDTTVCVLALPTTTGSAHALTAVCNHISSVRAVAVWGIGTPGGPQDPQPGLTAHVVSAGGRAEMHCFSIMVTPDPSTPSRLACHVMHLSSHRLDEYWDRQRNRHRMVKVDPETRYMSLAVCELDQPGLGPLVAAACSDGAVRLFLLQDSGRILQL"}, "[2]": {"target": "T2, human p19 skp1, expressed as a LexA fusion protein from vector pBTM116 (human, UniProt P63208 1-163, limits assumed)", "T2 construct": "Bait of the yeast two-hybrid screen in S. cerevisiae L40; also called human skp1", "T2 sequence (P63208 whole entry, the tested form may be a part)": "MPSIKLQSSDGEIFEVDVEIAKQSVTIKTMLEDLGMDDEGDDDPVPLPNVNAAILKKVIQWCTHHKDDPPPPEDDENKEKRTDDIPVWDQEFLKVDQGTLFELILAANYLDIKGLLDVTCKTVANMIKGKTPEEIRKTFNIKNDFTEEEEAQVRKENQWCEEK", "experiment": "yeast two-hybrid (LexA-skp1 bait, mouse cDNA-VP16 library)", "experimental": "A full length cDNA encoding a mouse homolog of yeast cdc4 protein was cloned through its ability to specifically interact with human p19 skp1 in a yeast two hybrid system. Briefly, human skp1 was cloned into the vector pBTM116 for expression as a LexA fusion protein. This construct was transformed into S. Cerevisiae strain L40 (MATa his3 200 trp1-900 leu2-3,112 ade LYS2::lexAop)₄-HIS3 URA3::(lexAop)₈-lacZ GAL4). Skp1 interacting clones were selected in the presence of 1 mM 3-aminotriazole after transformation of a mouse cDNA-VP16 fusion library. Specificity of the interacting clones was assessed with the D. Melanogaster daughterless gene."}},
  "data": [
    {"molecule": "UBC2", "values": [
      {"measurement": "in vitro ubiquitination reaction (E1, E2, biotinylated ubiquitin; streptavidin-HRP after non-reducing SDS-PAGE)", "setting": "[1]", "result": "though to a lesser extent, UBC2"}
    ]},
    {"molecule": "UBC4", "values": [
      {"measurement": "in vitro ubiquitination reaction (E1, E2, biotinylated ubiquitin; streptavidin-HRP after non-reducing SDS-PAGE)", "setting": "[1]", "result": "cdc4 polypeptide was found to be ubiquitinated by UBC4"}
    ]},
    {"molecule": "B1", "values": [
      {"measurement": "binding result", "setting": "[2]", "result": "binds"}
    ]}
  ]
}
